Measured values published in PMC7156504, “An in vivo platform to select and evolve aggregation-resistant proteins” (Nature Communications, 2020).
Changes are numbered by the printed parent chain.

B1: evolved scFvWFL variant 16 reformatted as IgG1 (antibody, V domains shown)
VH: QVQLVQSGAEVKKPGSSVKVSCKASGGTFWSGAFTWVRQAPGQGLEWMGGIIPISGLTNLAQNFQGRVTITADESTSTAYMELSSLRSEDTAVYYCARSSRIYDLNPSLTAYYDMDVWGQGTMVTVSS
VL: QSVLTQPPSVSAAPGQKVTISCSGSSSDIGNNYVSWYQQLPGTAPKLLIYDNNKRPSGIPDRFSGSKSGTSATLGITGLQTGDEADYYCGTWDSSLSAWVIGGGTKLTVL
notes: human IgG1 heavy chain constant region of the TM-YTE IgG1 expression vector; human light chain constant region of the expression vector; IgG1, TM-YTE backbone; selected by the TPBLA from an error-prone PCR library of scFvWFL; source: HEK293/EBNA, co-transfected, purified from the culture medium (Protein A)
B2: evolved scFvWFL variant 176 reformatted as IgG1 (antibody, V domains shown)
VH: B1 VH with Q6R, S31F, S55F, A79V
VL: B1 VL with I101F
notes: as for B1
B3: evolved scFvWFL variant 72 reformatted as IgG1 (antibody, V domains shown)
VH: B1 VH with F29S, S31F, I51T, S55F, A79V, E89D, D116G
VL: B1 VL with N31D, I101F
notes: as for B1
B4: evolved scFvWFL variant 128 reformatted as IgG1 (antibody, V domains shown)
VH: B1 VH with S31F, S55F, A79V, Y112D
VL: B1 VL with K17E, L40P, T43A, I101F
notes: retains W35, F36 and L64; human IgG1 heavy chain constant region of the TM-YTE IgG1 expression vector; human light chain constant region of the expression vector; IgG1, TM-YTE backbone; retains the original WFL residues (W35, F36 and L64); source: HEK293/EBNA, co-transfected, purified from the culture medium (Protein A)
B5: evolved scFvWFL variant 126 reformatted as IgG1 (antibody, V domains shown)
VH: B1 VH with S31F, I51F, A79V
VL: B1 VL with I101F
notes: as for B1
B6: evolved scFvWFL variant 37 reformatted as IgG1 (antibody, V domains shown)
VH: B1 VH with Q6P, S31F, I54T, S55F, A79V
VL: B1 VL with S25P, I101F
notes: as for B4
B7: DyLight650-labelled IgGWFL (antibody, V domains shown)
VH: B1 VH with S31F, S55F, A79V
VL: B1 VL with I101F
notes: as the VH of m1; human IgG1 heavy chain constant region of the TM-YTE IgG1 expression vector; as the VL of m1; human light chain constant region of the expression vector; same protein as m1; also called labelled MEDI1912; source: HEK293/EBNA, co-transfected, purified from the culture medium (Protein A); labelled with DyLight650
B8: MEDI578 (the parent antibody prior to affinity maturation into MEDI1912) (antibody, V domains shown)
VH: QVQLVQSGAEVKKPGSSVKVSCKASGGTFSTYGISWVRQAPGQGLEWMGGIIPIFDTGNSAQSFQGRVTITADESTSTAYMELSSLRSEDTAVYYCARSSRIYDLNPSLTAYYDMDVWGQGTMVTVSS
VL: B1 VL with D28N, I101F
notes: VH of MEDI578; VL of MEDI578; The entry is printed as 5J7Z in the methods; also called IgG_(MEDI578)
B9: evolved scFvWFL variant 59 reformatted as IgG1 (antibody, V domains shown)
VH: B1 VH with W30R, S31F, V37A, S55F, V68A, A79V
VL: B1 VL with I49T, D61G, I101F
notes: as for B1
B10: evolved scFvWFL variant 11 reformatted as IgG1 (antibody, V domains shown)
VH: B1 VH with Q6R, S31F, S55F, A79V, T110A
VL: B1 VL with S21P, I76V, I101F
notes: as for B1
B11: evolved scFvWFL variant 130 reformatted as IgG1 (antibody, V domains shown)
VH: B1 VH with T28A, S31F, I52T, S55F, L57H, A79V
VL: B1 VL with I101F
notes: as for B1
B12: evolved scFvWFL variant 139 reformatted as IgG1 (antibody, V domains shown)
VH: B1 VH with S25G, S55F, A79V, I102T
VL: B1 VL with S71T, I101F
notes: human IgG1 heavy chain constant region of the TM-YTE IgG1 expression vector; human light chain constant region of the expression vector; IgG1, TM-YTE backbone; the best performing variant of the screen; source: HEK293/EBNA, co-transfected, purified from the culture medium (Protein A)
B13: IgG STT (scFv STT) (antibody, V domains shown)
VH: B1 VH with W30S, S31T, S55F, A79V
VL: B1 VL with I101F

Target: T1, biotinylated nerve growth factor (NGF) (Homo sapiens, UniProt P01138, biotin (biotinylated in-house, sites not stated))
T1 construct: nerve growth factor (NGF), human; R&D Systems 256-GF; also called human nerve growth factor; source: bought: R&D Systems (256-GF), biotinylated in-house
T1 sequence (P01138 122-241): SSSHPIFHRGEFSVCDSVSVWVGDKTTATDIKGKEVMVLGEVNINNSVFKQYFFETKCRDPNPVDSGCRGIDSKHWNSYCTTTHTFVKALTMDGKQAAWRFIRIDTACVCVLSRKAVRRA
Test: AlphaScreen or HTRF; epitope competition assay: biotinylated NGF (detected by streptavidin Europium cryptate) and DyLight650-labelled IgGWFL with increasing concentrations of test IgG; relative affinity
Details: both partners purified

Binding result, binds:
B1, B2, B3, B4, B5, B6, B7, B8, B9, B10, B11, B12

Target: T1, biotinylated nerve growth factor (NGF)
Test: not given
Details: not given

Binding result, binds:
B13
